Laboratory results from patent US20080219974A1 (published 2008).
Changes are numbered by the printed parent chain. Names and notes keep the numbering of the source. Where two headings read alike, the source gives them in different places. Each block holds one binder with its values, some of them ahead of it.

Columns and labels:
[1] = molecular target: T1, Human HM1.24 on RPMI 8226 multiple myeloma cells (UniProt Q10589 1-161); assay: flow cytometry
T1 chain: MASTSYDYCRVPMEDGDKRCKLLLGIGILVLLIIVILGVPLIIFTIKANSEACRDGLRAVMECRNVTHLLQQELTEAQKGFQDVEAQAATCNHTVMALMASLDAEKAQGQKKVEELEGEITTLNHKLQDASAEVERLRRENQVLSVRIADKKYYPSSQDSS

[2] = molecular target: T2, His-tagged HM1.24 antigen, residues N49-A163 of the extracellular domain (UniProt Q10589 49-163); assay: Biacore
T2 chain: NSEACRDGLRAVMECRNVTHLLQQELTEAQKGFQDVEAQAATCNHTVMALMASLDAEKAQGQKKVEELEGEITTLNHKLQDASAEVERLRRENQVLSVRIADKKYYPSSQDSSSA

[3] = molecular target: T2, His-tagged HM1.24 antigen, residues …; assay: Biacore
[4] = molecular target: T2, His-tagged HM1.24 antigen, residues …; assay: Biacore
[5] = molecular target: T2, His-tagged HM1.24 antigen, residues …; assay: Biacore

EC50 [1]: 5.83 nM
B1: HM1.24_H2L2 (antibody, V domains shown)
VH: EVQLVESGGGLVKPGGSLRLSCAASGYTFTPYWMQWVRQAPGKGLEWMGSIFPGDGDTRYSQSFQGQVTISADKSISTAYMELSSLRSEDTAVYYCARGLRRGGYYFDYWGQGTLVTVSS
VL: DIVMTQSPSSLSASVGDRVTITCQASQDVNTAVAWYQQKPDQSPKLLIYSASNRYTGVPDRITGSGSGTDFTLTISSLQAEDVAVYYCQQHYSTPFTFGSGTKLEIKR

EC50 [1]: 13.1 nM
B2: H2L3_Hybrid_S239D/I332E (antibody, V domains shown)
VH: B1 VH
VL: B1 VL with S9P, S10T, A13L, V15P, D17E, I21L, T22S, Q24R, A80P, V83F

Kd [2]: 0.0522 nM
EC50 [1]: 2.22 nM
Kd [3]: 0.0637 nM
B3: H0L0_IgG1_S239D/I332E (antibody, V domains shown)
VH: QVQLQQSGAELARPGASVKLSCKASGYTFTPYWMQWVKQRPGQGLEWIGSIFPGDGDTRYSQKFKGKATLTADKSSSTAYMQLSILAFEDSAVYYCARGLRRGGYYFDYWGQGTTLTVSS
VL: DIVMTQSHKFMSTSVGDRVSITCKASQDVNTAVAWYQQKPGQSPKLLIYSASNRYTGVPDRITGSGSGTDFTFTISSVQAEDLALYYCQQHYSTPFTFGSGTKLEIK

Kd [2]: 0.0511 nM
EC50 [1]: 2.46 nM
Kd [3]: 0.0537 nM
B4: HM1.24_H0L0_IgG1_WT (antibody, V domains shown)
VH: B3 VH
VL: DIVMTQSHKFMSTSVGDRVSITCKASQDVNTAVAWYQQKPGQSPKLLIYSASNRYTGVPDRITGSGSGTDFTFTISSVQAEDLALYYCQQHYSTPFTFGSGTKLEIKR

koff [4]: 0.0023 s⁻¹
koff [5]: 0.00203 s⁻¹
Kd [2]: 0.062 nM
Kd [3]: 0.0711 nM
B5: HM1.24_H1.2 heavy chain variant with HM1.24_L4 light chain (antibody, V domains shown)
VH: QVQLVQSGAEVKKPGASVKVSCKASGYTFTPYWMQWVRQAPGQGLEWMGSIFPGSGDTRYSQSFQGQVTISADKSISTAYMELSRLRSDDTAVYYCARGLRRGGYYFDYWGQGTLVTVSS
VL: DIVMTQSPLSLPVTLGQPASISCKASQDVNTAVAWYLQKPGKSPKLLIYSASNRYTGVPDRITGSGSGTDFTLKISRVEAEDVGVYYCQQHYSTPFTFGSGTKLEIKR

koff [4]: 0.00206 s⁻¹
koff [5]: 0.0032 s⁻¹
B6: HM1.24_H1.1_L2_Hybrid_S239D/I332E (antibody, V domains shown)
VH: B5 VH with S55E
VL: B1 VL

koff [4]: 0.0039 s⁻¹
koff [5]: 0.00371 s⁻¹
B7: HM1.24_H1.2_L2_Hybrid_S239D/I332E (antibody, V domains shown)
VH: B5 VH
VL: B1 VL

EC50 [1]: 3.26 nM
B8: H1L3_Hybrid_S239D/I332E (antibody, V domains shown)
VH: B5 VH with S55D
VL: B1 VL with S9P, S10T, A13L, V15P, D17E, I21L, T22S, Q24R, A80P, V83F

koff [4]: 0.0029 s⁻¹
koff [5]: 0.004 s⁻¹
B9: HM1.24_H2.4 heavy chain variant with HM1.24_L4 light chain (antibody, V domains shown)
VH: B1 VH with G56A
VL: B5 VL

koff [4]: 0.00229 s⁻¹
koff [5]: 0.00261 s⁻¹
B10: HM1.24_H1.3 heavy chain variant with HM1.24_L4 light chain (antibody, V domains shown)
VH: B5 VH with S55D, G56S
VL: B5 VL

koff [4]: 0.00299 s⁻¹
koff [5]: 0.00418 s⁻¹
EC50 [1]: 3.55 nM
B11: HM1.24_H2L4 (antibody, V domains shown)
VH: B1 VH
VL: B5 VL

koff [4]: 0.00298 s⁻¹
koff [5]: 0.00298 s⁻¹
B12: HM1.24_H1.4 heavy chain variant with HM1.24_L4 light chain (antibody, V domains shown)
VH: B5 VH with S55D, G56A
VL: B5 VL

koff [4]: 0.00218 s⁻¹
koff [5]: 0.00266 s⁻¹
B13: HM1.24_H2.1 heavy chain variant with HM1.24_L4 light chain (antibody, V domains shown)
VH: B1 VH with D55E
VL: B5 VL

koff [4]: 0.00241 s⁻¹
koff [5]: 0.00318 s⁻¹
Kd [2]: 0.0269 nM
EC50 [1]: 2.52 nM
Kd [3]: 0.0574 nM
B14: HM1.24_H1L2 (antibody, V domains shown)
VH: B5 VH with S55D
VL: B1 VL

koff [4]: 0.00201 s⁻¹
koff [5]: 0.00251 s⁻¹
B15: HM1.24_H1.1 heavy chain variant with HM1.24_L4 light chain (antibody, V domains shown)
VH: B5 VH with S55E
VL: B5 VL

koff [4]: 0.00279 s⁻¹
koff [5]: 0.003 s⁻¹
B16: HM1.24_H1.3_L2_Hybrid_S239D/I332E (antibody, V domains shown)
VH: B5 VH with S55D, G56S
VL: B1 VL

koff [4]: 0.00274 s⁻¹
koff [5]: 0.00352 s⁻¹
B17: HM1.24_H1.4_L2_Hybrid_S239D/I332E (antibody, V domains shown)
VH: B5 VH with S55D, G56A
VL: B1 VL

koff [4]: 0.00327 s⁻¹
koff [5]: 0.00374 s⁻¹
B18: HM1.24_H2.3 heavy chain variant with HM1.24_L4 light chain (antibody, V domains shown)
VH: B1 VH with G56S
VL: B5 VL

koff [4]: 0.00243 s⁻¹
koff [5]: 0.00352 s⁻¹
Kd [2]: 0.0381 nM
EC50 [1]: 1.89 nM
Kd [3]: 0.0572 nM
B19: HM1.24_H1L4 (antibody, V domains shown)
VH: B5 VH with S55D
VL: B5 VL
